Among the data in US20240182563A1 (GENOME, published 2024) are EC50 and Shift % values, retold here.

One experiment deals with T1, human CNTN4-rabbit Fc (human; rabbit, UniProt Q8IWV2 19-1000, limits assumed).
T1 construct: not shown: rabbit Fc
T1 sequence (looked up): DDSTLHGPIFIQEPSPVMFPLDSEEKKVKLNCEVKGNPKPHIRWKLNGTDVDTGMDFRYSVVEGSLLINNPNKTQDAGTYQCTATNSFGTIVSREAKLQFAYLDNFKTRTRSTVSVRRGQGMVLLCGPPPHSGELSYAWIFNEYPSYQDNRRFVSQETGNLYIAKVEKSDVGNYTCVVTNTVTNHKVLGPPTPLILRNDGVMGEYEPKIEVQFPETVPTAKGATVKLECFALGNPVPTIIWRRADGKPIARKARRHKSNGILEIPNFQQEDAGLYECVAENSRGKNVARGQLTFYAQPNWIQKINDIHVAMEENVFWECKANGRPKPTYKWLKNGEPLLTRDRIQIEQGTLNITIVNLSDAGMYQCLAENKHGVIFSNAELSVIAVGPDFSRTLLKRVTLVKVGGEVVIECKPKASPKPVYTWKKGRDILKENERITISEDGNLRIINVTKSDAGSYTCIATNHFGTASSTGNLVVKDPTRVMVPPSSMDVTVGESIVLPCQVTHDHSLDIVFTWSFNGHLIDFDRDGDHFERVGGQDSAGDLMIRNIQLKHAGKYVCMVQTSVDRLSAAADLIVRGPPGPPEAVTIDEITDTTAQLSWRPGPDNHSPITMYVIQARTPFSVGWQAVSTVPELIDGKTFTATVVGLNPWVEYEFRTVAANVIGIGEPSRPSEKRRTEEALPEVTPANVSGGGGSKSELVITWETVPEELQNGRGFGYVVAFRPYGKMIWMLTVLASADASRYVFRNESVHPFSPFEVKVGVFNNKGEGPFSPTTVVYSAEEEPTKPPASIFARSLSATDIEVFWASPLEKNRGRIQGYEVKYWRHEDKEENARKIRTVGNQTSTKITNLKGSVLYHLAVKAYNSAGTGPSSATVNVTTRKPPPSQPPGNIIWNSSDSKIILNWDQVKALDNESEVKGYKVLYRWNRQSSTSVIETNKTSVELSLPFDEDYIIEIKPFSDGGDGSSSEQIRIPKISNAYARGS
In words: ELISA, plate coated with antigen-rabbit Fc, anti-human kappa-HRP. A general note: An ELISA detects its analyte on a solid surface through an enzyme-linked reagent.

Another experiment has as its target T2, mouse CNTN4-rabbit Fc (mouse; rabbit, UniProt Q69Z26 19-1000, limits assumed).
T2 construct: not shown: rabbit Fc
T2 sequence (looked up): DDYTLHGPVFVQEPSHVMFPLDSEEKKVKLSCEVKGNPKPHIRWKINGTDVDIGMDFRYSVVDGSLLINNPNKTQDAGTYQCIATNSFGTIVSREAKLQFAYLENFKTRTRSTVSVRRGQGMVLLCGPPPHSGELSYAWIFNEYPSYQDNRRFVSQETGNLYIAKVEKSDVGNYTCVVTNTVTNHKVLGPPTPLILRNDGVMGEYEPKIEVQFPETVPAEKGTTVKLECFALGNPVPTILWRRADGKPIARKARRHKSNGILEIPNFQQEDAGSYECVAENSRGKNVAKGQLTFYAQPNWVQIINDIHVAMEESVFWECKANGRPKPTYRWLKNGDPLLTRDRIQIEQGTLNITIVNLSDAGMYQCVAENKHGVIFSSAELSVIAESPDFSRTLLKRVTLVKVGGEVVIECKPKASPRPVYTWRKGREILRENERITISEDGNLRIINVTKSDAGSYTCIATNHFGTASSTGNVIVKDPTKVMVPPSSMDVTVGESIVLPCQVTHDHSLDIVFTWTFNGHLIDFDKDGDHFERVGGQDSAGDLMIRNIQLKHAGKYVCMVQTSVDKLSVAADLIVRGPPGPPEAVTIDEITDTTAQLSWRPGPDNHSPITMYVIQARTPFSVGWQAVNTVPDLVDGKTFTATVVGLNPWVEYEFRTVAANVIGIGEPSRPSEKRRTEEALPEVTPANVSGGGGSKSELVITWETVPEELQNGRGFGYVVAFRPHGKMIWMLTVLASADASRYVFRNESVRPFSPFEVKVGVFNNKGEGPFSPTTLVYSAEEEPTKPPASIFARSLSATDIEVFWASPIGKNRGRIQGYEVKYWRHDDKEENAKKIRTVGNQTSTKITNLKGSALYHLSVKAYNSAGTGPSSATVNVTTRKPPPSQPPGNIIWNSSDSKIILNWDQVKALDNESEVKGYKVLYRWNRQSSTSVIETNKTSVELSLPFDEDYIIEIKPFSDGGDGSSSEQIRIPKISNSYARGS
The description is as above.

The target of experiment [1] is T3, human CNTN4 antigen expressed on the cell membrane of 293FT cells (human) (UniProt Q8IWV2).
T3 sequence (looked up): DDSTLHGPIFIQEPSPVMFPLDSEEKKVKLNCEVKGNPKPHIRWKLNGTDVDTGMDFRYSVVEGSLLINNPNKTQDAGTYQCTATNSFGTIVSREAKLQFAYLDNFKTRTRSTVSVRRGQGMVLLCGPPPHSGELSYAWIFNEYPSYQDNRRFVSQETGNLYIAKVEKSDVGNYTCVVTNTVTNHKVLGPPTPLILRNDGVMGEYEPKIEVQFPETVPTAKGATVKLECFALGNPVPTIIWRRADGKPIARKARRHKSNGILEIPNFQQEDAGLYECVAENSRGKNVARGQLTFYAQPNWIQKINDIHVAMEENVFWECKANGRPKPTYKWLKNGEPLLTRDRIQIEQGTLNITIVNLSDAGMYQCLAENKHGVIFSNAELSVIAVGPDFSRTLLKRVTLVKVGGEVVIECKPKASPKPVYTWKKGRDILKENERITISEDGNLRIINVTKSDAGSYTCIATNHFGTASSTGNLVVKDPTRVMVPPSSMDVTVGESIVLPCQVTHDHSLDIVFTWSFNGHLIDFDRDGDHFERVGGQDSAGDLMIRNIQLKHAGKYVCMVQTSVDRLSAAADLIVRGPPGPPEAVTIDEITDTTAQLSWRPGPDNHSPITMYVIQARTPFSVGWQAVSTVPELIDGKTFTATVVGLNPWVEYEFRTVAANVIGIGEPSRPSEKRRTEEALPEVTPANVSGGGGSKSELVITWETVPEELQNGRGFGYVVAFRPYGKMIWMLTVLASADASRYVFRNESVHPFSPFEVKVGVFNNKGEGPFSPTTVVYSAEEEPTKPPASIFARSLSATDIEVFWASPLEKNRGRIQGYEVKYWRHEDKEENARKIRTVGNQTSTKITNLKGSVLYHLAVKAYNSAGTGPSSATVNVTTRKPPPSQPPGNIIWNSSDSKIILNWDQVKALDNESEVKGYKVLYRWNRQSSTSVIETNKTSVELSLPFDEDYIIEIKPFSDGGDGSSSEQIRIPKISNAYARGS
The experiment in a line: FACS, 293FT cells transfected with human CNTN4, 40 ug/mL, anti-hCk-PE. (In general: Flow cytometry measures light scatter and fluorescence of single cells or particles in a stream.)

B1: anti-CNTN4 scFv-hCk S132 (scFv, part only; not given: linker and kappa constant region, V domains shown, not shown: another chain or arm of the molecule; a dimerising Fc or GST; small tags and cut ends)
VL: ALTQPSSVSANPGETVKITCSGGGSSTYYGWYQQKSPGSAPVTVIYNNNNRPSDIPSRFSGSGSGSTGTLTITGVRAEDEAVYYCGGYDGSTDVFGAGTTLTVL
VH: AVTLDESGGGLQTPGGALSLVCKASGFTFSSFNMFWVRQAPGKGLEYVAEISGGGGSTWYAPAVKGRATISRDNGQSTVRLQLNNLRAEDTGTYYCAKSADTWSYGAATIDAWGHGTEVIVSS
Consider B1, for which the EC50 came to 1.16 nM with human CNTN4-rabbit Fc and 0.72 nM with mouse CNTN4-rabbit Fc. Also, the Shift % in experiment [1] is 16.1%.

B2: anti-CNTN4 scFv-hCk S134 (scFv, part only; not given: linker and kappa constant region, V domains shown, not shown: another chain or arm of the molecule; a dimerising Fc or GST; small tags and cut ends)
VL: ALTQPSSVSANPGETVKITCSGGTYSYGNYYYGWYQQKSPGSAPVTVIYNNNNRPSDIPSRFSGSGSGSTGTLTITGVRAEDEAVYYCGGYDGSTDVFGAGTTLTVL
VH: AVTLDESEGGLQTPGGALSLVCKASGFTFSSFNMFWVRQAPGKGLEYVAEISGGGGSTWYAPAVKGRATISRDNGQSTVRLQLNNLRAEDTGTYYCAKSADTWSYGAATIDAWGHGTEVIVSS
For B2, the EC50 in the experiment with human CNTN4-rabbit Fc and with mouse CNTN4-rabbit Fc was 0.75 nM throughout. Also, the Shift % in experiment [1] is 18%.

B3: anti-CNTN4 scFv-hCk S138 (scFv, part only; not given: linker and kappa constant region, V domains shown, not shown: another chain or arm of the molecule; a dimerising Fc or GST; small tags and cut ends)
VL: ALTQPSSVSANPGETVNITCSGGGSYAGSYYYGWYQQKAPGSAPVTVIYDSTNRPSNIPSRFSGSLSGSTNTLTITGVRAEDEAVYYCGGYDGSTDVFGAGTTLTVL
VH: AVTLDESEGGLQTPGGALSLVCKASGFTFSSFNMFWVRQAPGKGLEYVAEISGGGGSTWYAPAVKGRATISRDNGQSTVRLQLNNLRAEDTGTYYCAKSADTWSYGAATIDAWGHGTEVIVSS
Consider B3, for which the EC50 with human CNTN4-rabbit Fc came out at 2.37 nM; with mouse CNTN4-rabbit Fc, 1.06 nM. Besides, the Shift % in experiment [1] was determined as 15.8%.

B4: anti-CNTN4 scFv-hCk S135 (scFv, part only; not given: linker and kappa constant region, V domains shown, not shown: another chain or arm of the molecule; a dimerising Fc or GST; small tags and cut ends)
VL: ALTQPSSVSANPGETVKITCSGGGSSSYYGWYQQKSPGSAPVTVIYYNNRPSDIPSRFSGSGSGSTGTLTITGVRAEDEAVYYCGGYDGSTDVFGAGTTLTVL
VH: AVTLDESEGGLQTPGGALSLVCKASGFTFSSFNMFWVRQAPGKGLEYVAEISGGGGSTWYAPAVKGRATISRDNGQSTVRLQLNNLRAEDTGTYYCAKSADTWSYGAATIDAWGHGTEVIVSS
For B4, the EC50 with human CNTN4-rabbit Fc stood at 1.06 nM; in the experiment with mouse CNTN4-rabbit Fc it was 0.71 nM. In addition, the Shift % in experiment [1] turned out to be 18.2%.

B5: anti-CNTN4 scFv-hCk S137 (scFv, part only; not given: linker and kappa constant region, not shown: a dimerising Fc or GST)
scFv, part: ALTQPSSVSANPGETVKITCSGGSSYGWYQQKSPGSAPVTVIYDNTNRPSNIPSRFSGSKSGSTNTLTITGVQAEDEAVYYCGGYDGSTDAFGAGTTLTVLAVTLDESEGGLQTPGGALSLVCKASGFTFSSFNMFWVRQAPGKGLEYVAEISGGGGSTWYAPAVKGRATISRDNGQSTVRLQLNNLRAEDTGTYYCAKSADTWSYGAATIDAWGHGTEVIVSS
Consider B5, for which the EC50 is 0.41 nM in the experiment with human CNTN4-rabbit Fc and 0.52 nM with mouse CNTN4-rabbit Fc. Besides, in experiment [1], the Shift % is 15.3%.

A word on the EC50: it is the concentration that produces a half-maximal response. High values mean a less potent agent, low ones a more potent agent.
